# The RNAGym collection of RNA variant scans (doi:10.1073/pnas.2313332121)
# B1: TPR t1 (parent)
# chain: GACCAAUCUGCCCUCAGAGCUCGAGAACAUCUUCGGAUGCAGAGGAGGCAGGCUUCGGUGGCGCGAUAGCGCCAACGUCCUCAACCUCCAAUGCAUCCCACCACAUGAUGAUGCCUGAAGAGCCUUGGUUUUUUG
# Variants of: B1
# Assay: polymerase ribozyme fitness, log enrichment relative to wild type (log ratio); higher = more active; in vitro selection for triplet polymerase activity
# Method in brief: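 Input and output libraries were sequenced on Illumina after a single in vitro selection round, run in triplicate on PCR-built, transcribed mutant libraries of each subunit of a heterodimeric triplet polymerase ribozyme. Selection annealed libraries to a biotinylated primer, the partner subunit and triplets, incubated them frozen at −7 °C, then gel-excised extended constructs for streptavidin-bead capture and RT-PCR. Genotypes with ≥10 input reads and ≥1 read per output were kept. Fitness is the logarithm, taken in base 2, of genotype enrichment divided by wild-type enrichment, using inverse-variance-weighted replicate averages.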
row,Variant,polymerase ribozyme fitness (log ratio)
1,GACCAAUCUGCCCUCAGAGCUCGAGAACAUCUUCGGAUGCCGAGGAGGCAGGCUUCGGUGGCGCGAUAGCGCCAACGUCCUCAACCUCCAAUGCAUCCCACCACAUGAUGAAGCCUGAAGAGCCUUGGUUUUUUG [A41C U112A],0.299
2,GACCAAUCUGCCCUCAGAGCUCGAGAACAUCUUCGGAUGCCGAGGAGGCAGGCUUCGGUGGCGCGAUAGCGCCAACGUCCUCAACCUCCAAUGCAUCCCACCACAUGAUGAUGCCUGAAGAGACUUGGUUUUUUG [A41C C123A],-0.408
3,GACCAAUCUGCCCUCAGAGCUCGAGAACAUCUUCGGAUGCCGAGGAGGCAGGCUUCGGUGGCCCGAUAGCGCCAACGUCCUCAACCUCCCAUGCAUCCCACCACAUGAUGAUGCCUGAAGAGGCUUGCUUUUUUG [A41C G63C A90C C123G G128C],-3.12
4,GACCAAUCUGCCCUCAGAGCUCGAGAACAUCUUCGGAUGCCGAGGAGGCAGGCUUCGGUGGCGCGAUAGCGCCAACGGCCUCAACCUCCAAUGCAUCCCACCACAUGAUGAUGCCUGAAGAACCUUGGUUUUUUG [A41C U78G G122A],-1.85
5,GACCAAUCUGCCCUCAGAGCUCGAGAACAUCUUCGGAUGCGGGGGAGGCAGGCUUCGGUGGCGCGAUAGCGCCAACGUCCUCAACCUCCAAUGCAUCCCACCACAUGAUGAUGCCUGAAGAGCCUUGGUUUUUUG [A41G A43G],-1.45
6,GACCAAUCUGCCCUCAGAGCUCGAGAACAUCUUCGGAUGCCGAGGAGACAGGCUUCGGUAGCGCGAUAGCGCCAACGUCCUCAACUUCCAAUGCAGCCCACCACAUGAUGAUGCCUGAAGAGCCUUGGUUUUUUG [A41C G48A G60A C86U U96G],-3.39
7,GACCAAUCUGCCCUCAGAGCUCGAGAACAUCUUCGGAUGCCGAGGAGGCAGGCUUCGGUGGCGCGAUAGCGUCGACGUCCUCAACCUCCAUUGCCUCCCACCACAUGAUGAUACCUGAAGAGCCUUGGUUUUUUG [A41C C72U A74G A91U A95C G113A],-3.31
8,GACCAAUCUGCCCUCAGAGCUCGAGAACAUCUUCGGAUGCGGAGGUGGCAGGCUUCGGUGGCACGAUAGCGCCAACGUCCUUAACCGCCAAUGCAUCCCACCACAUGAUGAUGCCUGAAGAGCCUUGGUUUUUUG [A41G A46U G63A C82U U87G],-2.41
9,GACCAAUCUGCCCUCAGAGCUCGAGAACAUCUUCGGAUGCCGAGGAGGCAGGCUUCGGUGUCGCGAUAGGGCCAACGUCCUCAACCUCCAAUGCAUCCCAACACAUGAUGCUGCCUGAAGAGCCUUGGUUUUUUG [A41C G61U C70G C101A A111C],-5.73
10,GACCAAUCUGCCCUCAGAGCUCGAGAACAUCUUCGGAUGCCGAGGAGGCAGGCUUCGAUGGCGCGAUAGCGUCAACGUCCUCAACCUCCAAUGCAUCCCACCACAUGAUGAUGCCUGAAGAGCCUUGGUUUUUUG [A41C G58A C72U],-0.757
11,GACCAAUCUGCCCUCAGAGCUCGAGAACAUCUUCGGAUGCGGAGGAGGCAGGCUUCGGUGGCGCGAUAGCGCCAACGUCCUCCACCUCCAAUGCAUCUCACCACAUGAUGAUGCCUGAAGAGCCUUGGUUUUUUG [A41G A83C C98U],-1.73
12,GACCAAUCUGCCCUCAGAGCUCGAGAACAUCUUCGGAUGCCGAGGAGGCAGGCUUCGGUGGCGCGAUAGCGCCAACGUCCUCAACCUCCAAUGCAUCCCACCACACGAUGCUGCCUGAAGAGCCUUGGUUUUUUG [A41C U106C A111C],-2.11
13,GACCAAUCUGCCCUCAGAGCUCGAGAACAUCUUCGGAUGCCGAGGAGGCAGGCUUGGGUGGCGCGAUAGCGCCAACGUCCUCAAUCUCCAAUGCAUCCCACUACAUGAUGAUGCCUGAAGAGCCUUGGUUUUUUG [A41C C56G C85U C102U],-5.51
14,GACCAAUCUGCCCUCAGAGCUCGAGAACAUCUUCGGAUGCCGAGGAGGCAGGCUUCGGUGGCGCGAUAUCGCCAACGUCCUUAACCUCCAAUGCAUCCCACCACUUGAUGAUGCCUGAAGAGACUUGGUUUUUUG [A41C G69U C82U A105U C123A],-1.3
15,GACCAAUCUGCCCUCAGAGCUCGAGAACAUCUUCGGAUGCGGAGGAGGCUGGCUUCGGUGGCGCGAUAGCGCCAACGUCCUCAACCUCCAAUGCAUCCCACCACAUGAUGAUGCCUGAAGAGCCUUGGUUUUUUG [A41G A50U],-1.71
16,GACCAAUCUGCCCUCAGAGCUCGAGAACAUCUUCGGAUGCGGAGGUGGCAGGCUUCGGUGGCGCGAUAGCGCCAACGUCCUCAACCUCCAAUGCAUCCCACCACAUGAUGAUGCCUGAAGAGCCUUGGUUUUUUG [A41G A46U],-3.31
17,GACCAAUCUGCCCUCAGAGCUCGAGAACAUCUUCGGAUGCCGAGGAGGCAGGUUUCGGUGGCGCGAUAGCGCCAACGUCCUCAACCUCCAAUGCAUCCCACCACAUGAUGAUGCCUGAAGAACCUUGGUUUUUUG [A41C C53U G122A],-2.04
18,GACCAAUCUGCCCUCAGAGCUCGAGAACAUCUUCGGAUGCCGAGGAGGCAGGUUUCGGUGGCGCGAUAGCGCCAACGUCCUCAACCUCCAAUGCAUCCCACCACAUGAUGAUGCCUGAAGAGCCUUGGUUUUUUG [A41C C53U],-0.83
19,GACCAAUCUGCCCUCAGAGCUCGAGAACAUCUUCGGAUGCCGAGGAGGCAGGCUUCGGUGGCGUGAUAGCGCCAACGCCCUCAACCUCCAAUGCAUCCCACCACAAGAUGAUGCCUGAAGAGCCUUGGUUUUUUG [A41C C64U U78C U106A],-1.57
20,GACCAAUCUGCCCUCAGAGCUCGAGAACAUCUUCGGAUGCCGAGGAGGCAGGCUACGGUGGCGCGAUAGCGCCAACGUCCUCAACCUCCAAUGCAUCCCACUACAUGAUGAUGCCUGAAGAGCCUUGGUUUUUUG [A41C U55A C102U],-3.43
21,GACCAAUCUGCCCUCAGAGCUCGAGAACAUCUUCGGAUGCCGAGGAGGCAGGCUUCGGUGGCGCGAUAGCGCCAACGUCCACAACCUCCAAUGCAUCCCACCACAUGAUGAUGCCUGAAGAGCCUUGGUUUUGUG [A41C U81A U133G],-2.53

row,Variant,polymerase ribozyme fitness (log ratio)
1,GACCAAUCUGCCCUCAGAGCUCGAGAACAUCUUCGGAUGCCGAGGAGGCAGGCUUCGGUGGCGCGAUAGAGCCAACGUCCUCAACCUCCAAUGCAUCCCACCACAUGAUGAUGCCUGGAGAGCCUUGGUUUUUUG [A41C C70A A118G],-3.8
2,GACCAAUCUGCCCUCAGAGCUCGAGAACAUCUUCGGAUGCCGAGGAGGCAGGCUUCGGUGGAGCGAUAGCGCCAACGUCCUUAACCUCCAAUGCAUCCCACCACAUGAUGAUGCCUGAAGAGCCUUGGUUUUUUG [A41C C62A C82U],-2.04
3,GACCAAUCUGCCCUCAGAGCUCGAGAACAUCUUCGGAUGCCGAGGAGGCAGGCUUCGGUGGCGCGAUAGCGCCAACGUCCUCAACCUCCAAUGCAUCCCACCACAUGAUGAUGCCUGAAGAGCCUGGGUGUUUUG [A41C U126G U130G],-4.83
4,GACCAAUCUGCCCUCAGAGCUCGAGAACAUCUUCGGAUGCGGAGGAGGCAGGCUUCGGUGGCGCGAUAGCGCCAACGUCCUCAACCUCCAAUGCAUCCCACCACAUGAUGAUGCCUGGAUAGCCUUGGUAUUUUG [A41G A118G G120U U130A],-1.43
5,GACCAAUCUGCCCUCAGAGCUCGAGAACAUCUUCGGAUGCCGAGGAGGCAGGCUUCGGUGGCGCGAUAGCGCCAAAGUACUCAACCUCCAAUGCAUCCCACCACAUGAUGAAGCCUGAAGAGCCCUGGUUUUUUG [A41C C76A C79A U112A U125C],-2.16
6,GACCAAUCUGCCCUCAGAGCUCGAGAACAUCUUCGGAUGCCGAGGAGGCAGGCUUCGGUGGCGCGAUAGCGCCAACGUCCUCAACCUCCAAUGCAUCCCACCACAUGAUGAUGUCUGAAGAGCCUUGGUUUUUUG [A41C C114U],-2.16
7,GACCAAUCUGCCCUCAGAGCUCGAGAACAUCUUCGGAUGCCGAGGAGUCAGGCUUCGGUGGCGCGAUAGCGCCAACGUCCUCAACCUCCAAUGCAUCCCACCACAUGAUGCUGCCUGAAGAGCCUUGGUUUUUUG [A41C G48U A111C],-3.12
8,GACCAAUCUGCCCUCAGAGCUCGAGAACAUCUUCGGAUGCGGAGGAGGCAGGCUUCGGUGGCGCGAUAGCGCCAACGUCCUCAACCUCCAAUGCGUCCCACCACAUGAUGAUGUCUGAAGAGCCUUGGUUUUUUG [A41G A95G C114U],-2.64
9,GACCAAUCUGCCCUCAGAGCUCGAGAACAUCUUCGGAUGCCGAGGAGGCAGGCUUCGGUGGCGCGAUAGCGCGAACGUCCUCAAACUCCAAUGCAUCCCACCACAUGAUGAUGCCUGUAGAGCCUUGGUUUUUUG [A41C C73G C85A A118U],-3.17
10,GACCAAUCUGCCCUCAGAGCUCGAGAACAUCUUCGGAUGCCUAGGAGGCAGGCUUCGGUGGCGCGAUAGCGCCAACGUCCUCAACCUCCAAUGCAUCCCACCAUAUGAUGAUGACUGAAGAGCCUUGGUUUUUUG [A41C G42U C104U C114A],-3.04
11,GACCAAUCUGCCCUCAGAGCUCGAGAACAUCUUCGGAUGCCGAGGAGGCAGGCUUCGGUGGCGCGAUAGUGCCAACGUCCUCAACCUCCAAUGCAUCCCACCACAUGAUGAUGCCUGAAGAGCCUUGGUUUUUUG [A41C C70U],-2.04
12,GACCAAUCUGCCCUCAGAGCUCGAGAACAUCUUCGGAUGCCGAGGAGGCAGGCUUCGGUGGCGCGAUAGGGCCAACGUCCUCAACCUCCAAUGCAUCCCACCACAUGAUGAUGCCUGAAGAGCCUUGGUUUUUUG [A41C C70G],-3.91
13,GACCAAUCUGCCCUCAGAGCUCGAGAACAUCUUCGGAUGCCGAGGAGGCAGGCUUGGGUGGCGCGAUAGCGCCCACGUCCUCAACCUCCAAUGCAUCCCACCACAUGAUGAUGCCUGAAGAGCCUUGGUUUUUUG [A41C C56G A74C],-5.29
14,GACCAAUCUGCCCUCAGAGCUCGAGAACAUCUUCGGAUGCCGAGGAGGCAGGCUUCGGUGGCGCGAUAGCGCCAACGUCCUCAACCUCCAAUGCAUCCCACCACAUGAUGAUGCCUUAAGAGCCUUGGUUUUUUG [A41C G117U],-2.87
15,GACCAAUCUGCCCUCAGAGCUCGAGAACAUCUUCGGAUGCCGAGGAGGCAGGCUUCGGUGGCGCGAUACCGCCAACGUCCUCGACCUCCAAUGCAUCCCACCACAUGAUGAUGCCUGAAGAGCCUUGGUUUUUUG [A41C G69C A83G],-3.72
16,GACCAAUCUGCCCUCAGAGCUCGAGAACAUCUUCGGAUGCCGAGGAGGCAGGCUUCGGUGGCGCGAUAGCGCCAACGUCCUCAACCUCCAAUGCAUCCCACCACGUGAUGAUGCCUGAAGAGCCUUGGUUUUUUG [A41C A105G],-3.93
17,GACCAAUCUGCCCUCAGAGCUCGAGAACAUCUUCGGAUGCCGAGGAGGCAGGCUUCGGUGGCGCGAUAGCGCCAACGUCCUUAACCUCCAAUGCAUCCCACCACAUGAUGAUGCCUGAAGAGCCUUGGUUUUUUG [A41C C82U],-1.12
18,GACCAAUCUGCCCUCAGAGCUCGAGAACAUCUUCGGAUGCCGAGGAGGCAGGCUUCGGUGGUGCGAUAGCGCCAACGUCCUCAACCUCCAAUGCAUCCCACCACAUGAUAAUGCCUGAAGAGCCUUGGUUUUUUG [A41C C62U G110A],-3.63
19,GACCAAUCUGCCCUCAGAGCUCGAGAACAUCUUCGGAUGCCGAUGAGGCAGGCUUCGGUGGCGCGAUAGCGCCAACGUCCUCAACCUCCAAUGCAUCCCACCACAUGAUGAUGCAUGAAGAUCCUUGGUGUUUUG [A41C G44U C115A G122U U130G],-4.66
20,GACCAAUCUGCCCUCAGAGCUCGAGAACAUCUUCGGAUGCCGAGGAGGCAGGCUUCGGUGGCGCGAUAGCGCCAACGUCCUCAACCUCCAAUGCAUCCCACCACAUGAUGAUGCCUGAAGAGCCUUGGUUGUUUG [A41C U131G],-0.589
21,GACCAAUCUGCCCUCAGAGCUCGAGAACAUCUUCGGAUGCCGAGGAGGCAGUCUUCGGUGGCGCGAUAGCGGCAACGUCCUCAACCUCCAAUGCAACCCACCACAUGAUGAUGCCUGAAGAGCCUUGGUUUUUUG [A41C G52U C72G U96A],-4.71
